Results taken from paper PMC11363328, “Identification of Rocaglate Acyl Sulfamides as Selective Inhibitors of Glioblastoma Stem Cells”.

Assays:
Conditions in all cases: protein: recombinant; single strand
eIF4A1 [1] = biological target: T1, eIF4A1 (UniProt P60842 1-406); assay: fluorescence polarization, protein titration; 50 uM (-)-7, 1 mM ATP; EC50 for complex formation, range for all three compounds; FP: 14.4 mM HEPES-KOH pH 8, 108 mM NaCl, 1 mM MgCl2, 14.4% glycerol, 0.1% DMSO, 2 mM DTT, 1 mM ATP, 10 nM probe, room temperature, 10 min
T1 sequence (P60842 whole entry): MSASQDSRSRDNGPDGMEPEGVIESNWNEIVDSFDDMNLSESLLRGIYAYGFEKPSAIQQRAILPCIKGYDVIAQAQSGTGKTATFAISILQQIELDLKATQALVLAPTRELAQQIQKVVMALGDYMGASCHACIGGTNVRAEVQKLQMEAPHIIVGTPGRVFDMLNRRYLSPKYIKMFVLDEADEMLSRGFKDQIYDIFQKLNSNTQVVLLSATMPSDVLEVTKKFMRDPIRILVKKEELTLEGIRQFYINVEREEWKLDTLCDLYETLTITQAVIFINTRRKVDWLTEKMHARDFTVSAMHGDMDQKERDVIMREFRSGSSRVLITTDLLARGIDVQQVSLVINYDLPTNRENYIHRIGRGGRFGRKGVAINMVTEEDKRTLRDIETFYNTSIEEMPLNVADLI

eIF4A1 [2] = biological target: T1, eIF4A1; assay: fluorescence polarization, protein titration; 50 uM (-)-20, 1 mM ATP; EC50 for complex formation, range for all three compounds; FP: 14.4 mM HEPES-KOH pH 8, 108 mM NaCl, 1 mM MgCl2, 14.4% glycerol, 0.1% DMSO, 2 mM DTT, 1 mM ATP, 10 nM probe, room temperature, 10 min
eIF4A1 [3] = biological target: T1, eIF4A1; assay: fluorescence polarization, protein titration; 50 uM (-)-5, 1 mM ATP; EC50 for complex formation, range for all three compounds; FP: 14.4 mM HEPES-KOH pH 8, 108 mM NaCl, 1 mM MgCl2, 14.4% glycerol, 0.1% DMSO, 2 mM DTT, 1 mM ATP, 10 nM probe, room temperature, 10 min

Measured: apparent K (half saturation)

B1: FAM-r(AG)8 (ssRNA)
RNA: AGAGAGAGAGAGAGAG
~245 nM: all assays above
